The record followed here is the supplement of paper PMC5998384.

Series [1] relates to HeLa Kyoto. Briefly: solubility in G1/S (NP-40 vs SDS abundance) (log2 ratio); higher = more soluble. The note with it: cell cycle stage: G1/S.
Series [2] relates to HeLa Kyoto. Nature of the series: melting temperature (median over replicates), in situ; higher = more thermally stable.
The subject of series [3] is HeLa Kyoto. Briefly: solubility change mitosis vs G1/S (difference of NP-40 vs SDS log2 ratios) (log2 ratio difference); higher = more soluble in mitosis.
Series [4] concerns HeLa Kyoto. Briefly: thermal stability score vs G1/S (z-score of summed log2 fold changes over temperatures); higher = more thermally stable than in G1/S.
[5] abbreviates: cell cycle stage: early G1 (4.5 h after nocodazole release).
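Throughout, for melting temperature (median over replicates), in situ: HeLa Kyoto cells synchronized by double thymidine or nocodazole block, proteins quantified by TMT10plex mass spectrometry, three independent biological replicates.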
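Throughout, for solubility change mitosis vs G1/S (difference of NP-40 vs SDS log2 ratios): synchronized HeLa Kyoto cells (double thymidine block for G1/S, nocodazole release for mitosis), protein amounts in NP-40 versus SDS lysates quantified by mass spectrometry, three biological replicates.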
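Throughout, for solubility in G1/S (NP-40 vs SDS abundance): HeLa Kyoto cells arrested at G1/S by double thymidine block, proteins quantified by TMT10plex mass spectrometry in mild NP-40 versus SDS extracts, three biological replicates.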
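Throughout, for thermal stability score vs G1/S (z-score of summed log2 fold changes over temperatures): synchronized HeLa Kyoto cells, proteins quantified by TMT10plex mass spectrometry, three biological replicates, mitosis taken 0.5 h after nocodazole release, G1/S directly after double thymidine block.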

Turning to “MADESETAVKPPAPPLPQMMEGNGNGHEHCSDCENEEDNSYNRGGLSPANDTGAKKKKKKQKKKKEKGSETDSAQDQPVKMNSLPAERIQEIQKAIELFSVGQGPAKTMEEASKRSYQFWDTQPVPKLGEVVNTHGPVEPDKDNIRQEPYTLPQGFTWDALDLGDRGVLKELYTLLNENYVEDDDNMFRFDYSPEFLLWALRPPGWLPQWHCGVRVVSSRKLVGFISAIPANIHIYDTEKKMVEINFLCVHKKLRSKRVAPVLIREITRRVHLEGIFQAVYTAGVVLPKPVGTCRYWHRSLNPRKLIEVKFSHLSRNMTMQRTMKLYRLPETPKTAGLRPMETKDIPVVHQLLTRYLKQFHLTPVMSQEEVEHWFYPQENIIDTFVVENANGEVTDFLSFYTLPSTIMNHPTHKSLKAAYSFYNVHTQTPLLDLMSDALVLAKMKGFDVFNALDLMENKTFLEKLKFGIGDGNLQYYLYNWKCPSMGAEKVGLVLQ [NMT1]”, the “solubility in G1/S (log2)” value in the series with HeLa Kyoto [1] was -0.131. The results for the melting temperature with HeLa Kyoto [2] (cell cycle stage: G1/S) and in the series with HeLa Kyoto [2] (cell cycle stage: mitosis) were 53.9 °C and 53.5 °C, respectively. For the same sequence, the “solubility change mitosis (log2)” value with HeLa Kyoto [3] was found to be 0.1. Besides, the thermal stability score was -0.333 in the series on HeLa Kyoto [4] (setting [5]) and -0.823 in the series on HeLa Kyoto [4] (cell cycle stage: mitosis).
Turning to “MADGDSGSERGGGGGPCGFQPASRGGGEQETQELASKRLDIQNKRFYLDVKQNAKGRFLKIAEVGAGGSKSRLTLSMAVAAEFRDSLGDFIEHYAQLGPSSPEQLAAGAEEGGGPRRALKSEFLVRENRKYYLDLKENQRGRFLRIRQTVNRGGGGFGAGPGPGGLQSGQTIALPAQGLIEFRDALAKLIDDYGGEDDELAGGPGGGAGGPGGGLYGELPEGTSITVDSKRFFFDVGCNKYGVFLRVSEVKPSYRNAITVPFKAWGKFGGAFCRYADEMKEIQERQRDKLYERRGGGSGGGEESEGEEVDED [PURB]”, the “solubility in G1/S (log2)” value in the series on HeLa Kyoto [1] stood at 0.381. Moreover, the melting temperature in the series on HeLa Kyoto [2] (cell cycle stage: G1/S) amounted to 54.2 °C; in the series with HeLa Kyoto [2] (cell cycle stage: mitosis), 54.1 °C. Also, the “solubility change mitosis (log2)” value with HeLa Kyoto [3] came to 0.0319. Besides, the thermal stability score in the series on HeLa Kyoto [4] (setting [5]) is -1.12; in the series on HeLa Kyoto [4] (cell cycle stage: mitosis) it was -5.37.
For the sequence “MADGGSERADGRIVKMEVDYSATVDQRLPECAKLAKEGRLQEVIETLLSLEKQTRTASDMVSTSRILVAVVKMCYEAKEWDLLNENIMLLSKRRSQLKQAVAKMVQQCCTYVEEITDLPIKLRLIDTLRMVTEGKIYVEIERARLTKTLATIKEQNGDVKEAASILQELQVETYGSMEKKERVEFILEQMRLCLAVKDYIRTQIISKKINTKFFQEENTEKLKLKYYNLMIQLDQHEGSYLSICKHYRAIYDTPCIQAESEKWQQALKSVVLYVILAPFDNEQSDLVHRISGDKKLEEIPKYKDLLKLFTTMELMRWSTLVEDYGMELRKGSLESPATDVFGSTEEGEKRWKDLKNRVVEHNIRIMAKYYTRITMKRMAQLLDLSVDESEAFLSNLVVNKTIFAKVDRLAGIINFQRPKDPNNLLNDWSQKLNSLMSLVNKTTHLIAKEEMIHNLQ [PSMD12]”, the “solubility in G1/S (log2)” value in the series with HeLa Kyoto [1] worked out at 0.0925. Besides, the melting temperature in the series with HeLa Kyoto [2] (cell cycle stage: G1/S) was 52.3 °C; with HeLa Kyoto [2] (cell cycle stage: mitosis), 51.6 °C. Moreover, the “solubility change mitosis (log2)” value in the series on HeLa Kyoto [3] was -0.104. Further, the thermal stability score is 2.61 in the series on HeLa Kyoto [4] (setting [5]) and 2.56 in the series with HeLa Kyoto [4] (cell cycle stage: mitosis).
In the case of “MADHVQSLAQLENLCKQLYETTDTTTRLQAEKALVEFTNSPDCLSKCQLLLERGSSSYSQLLAATCLTKLVSRTNNPLPLEQRIDIRNYVLNYLATRPKLATFVTQALIQLYARITKLGWFDCQKDDYVFRNAITDVTRFLQDSVEYCIIGVTILSQLTNEINQADTTHPLTKHRKIASSFRDSSLFDIFTLSCNLLKQASGKNLNLNDESQHGLLMQLLKLTHNCLNFDFIGTSTDESSDDLCTVQIPTSWRSAFLDSSTLQLFFDLYHSIPPSFSPLVLSCLVQIASVRRSLFNNAERAKFLSHLVDGVKRILENPQSLSDPNNYHEFCRLLARLKSNYQLGELVKVENYPEVIRLIANFTVTSLQHWEFAPNSVHYLLSLWQRLAASVPYVKATEPHMLETYTPEVTKAYITSRLESVHIILRDGLEDPLEDTGLVQQQLDQLSTIGRCEYEKTCALLVQLFDQSAQSYQELLQSASASPMDIAVQEGRLTWLVYIIGAVIGGRVSFASTDEQDAMDGELVCRVLQLMNLTDSRLAQAGNEKLELAMLSFFEQFRKIYIGDQVQKSSKLYRRLSEVLGLNDETMVLSVFIGKIITNLKYWGRCEPITSKTLQLLNDLSIGYSSVRKLVKLSAVQFMLNNHTSEHFSFLGINNQSNLTDMRCRTTFYTALGRLLMVDLGEDEDQYEQFMLPLTAAFEAVAQMFSTNSFNEQEAKRTLVGLVRDLRGIAFAFNAKTSFMMLFEWIYPSYMPILQRAIELWYHDPACTTPVLKLMAELVHNRSQRLQFDVSSPNGILLFRETSKMITMYGNRILTLGEVPKDQVYALKLKGISICFSMLKAALSGSYVNFGVFRLYGDDALDNALQTFIKLLLSIPHSDLLDYPKLSQSYYSLLEVLTQDHMNFIASLEPHVIMYILSSISEGLTALDTMVCTGCCSCLDHIVTYLFKQLSRSTKKRTTPLNQESDRFLHIMQQHPEMIQQMLSTVLNIIIFEDCRNQWSMSRPLLGLILLNEKYFSDLRNSIVNSQPPEKQQAMHLCFENLMEGIERNLLTKNRDRFTQNLSAFRREVNDSMKNSTYGVNSNDMMS [XPO7]”, the “solubility in G1/S (log2)” value in the series on HeLa Kyoto [1] was -0.0594. Further, the melting temperature in the series on HeLa Kyoto [2] (cell cycle stage: G1/S) and in the series on HeLa Kyoto [2] (cell cycle stage: mitosis) was 52.2 °C throughout. In addition, the “solubility change mitosis (log2)” value in the series with HeLa Kyoto [3] is -0.207. The thermal stability score with HeLa Kyoto [4] (setting [5]) came out at 0.0845; in the series on HeLa Kyoto [4] (cell cycle stage: mitosis), 0.043.
